Assay results reported in patent US20240026407A1, “MODIFICATION OF SAPONINS” (GLAXOSMITHKLINE BIOLOGICALS SA, priority 2020, published 2024).

Legend:
Format in all cases: biochemical, Quillaja saponaria
[1] = Experiment 6-1: specificity of rhamnosidases towards other rhamnose residues (C3 saccharide rhamnose, C28 saccharide rhamnose); details: TBE 2%, pH 7.5, 30 degC, 18 h; LCMS/MS; negative controls 0.18, 0.17
[2] = Experiment 6-1: screening of rhamnosidases for derhamnosylation of saponins in treated bark extract (2%), QS-17 2310 to QS-18 2164 (PAR %); details: TBE 2%, pH 7.5, 30 degC, 18 h; TIC peak area ratio percent, LCMS/MS; negative controls 3.061, 2.429
[3] = Experiment 6-1: screening of rhamnosidases for derhamnosylation of saponins in treated bark extract (2%), QS-17 2296 to QS-18 2150 (PAR %); details: TBE 2%, pH 7.5, 30 degC, 18 h; TIC peak area ratio percent of rhamnosylated starting saponin to derhamnosylated product, LCMS/MS; negative controls 4.876, 5.225
[4] = Experiment 6-1: screening of rhamnosidases for derhamnosylation of saponins in treated bark extract (2%), desglucosyl-QS-17 2134 to QS-21 1988 (PAR %); details: TBE 2%, pH 7.5, 30 degC, 18 h; TIC peak area ratio percent, LCMS/MS; negative controls 2.719, 2.158

B1: 1002 (protein, listed as Flavobacterium johnsoniae)
chain: MKNFKNILLGLSFLITFISNGQILPVRLTTEMAENPLAVIENQPKFSWQLISKESDVSQVAYLILVASSEEKLNNDDGDIWNSGRVNTDKNLHIVYSGKPLKSETKYFWKVKVWNQLGKISKWSKTASFRTASLESDLNPIWIGAITKADSHLPEGRNYHTATFNREKKMSFINASDSLARRSIMLRKPFEVEKAVKEAVVYISGLGHYELTINGKKVGNSQFAPLWTDYDKTVNYNVYELSAKEFQKGDNVIGVLLGNGMYNTLAERYTKFFVSFGPPTLFFKMKIKYNDGSEEIIKSDRTWKYSKSPITYNSIFGGEDYNANLEQKDWNRKGFKDRDWKKVVIQEAPKGILRPQTAPPVTIQKQYEVKTVKELKPNFYVFDMGQNLSGFPTIKVKGKRGQTIRVWVAEGLNEEGTIAQGRSGKPYYYDYTLKGKDVEEWTPKFSFYGYQYVQIENINYKEDKNKEFPTLVDLKSNFIYNSAGEAGSFACSNEIFNKTHELINNSIKSNFQSVFTDCPQREKLGWLEEIQLNGPSLMFNYNLQTFLPATMQNISDSQRENGLIPTIVPEYVIFGGDFTDSPEWGVTGVILPWMYYEYYGDASLLEKYFPVMKNYVDYLGTKATNHIVSHGLGDWYDYGTHPAGYSKNSPIALSATSHYYYGAFLVAKASKLLGKTEDFEKYNTLASEIKTAFNAAFFNEETKQYGTSSQFSNAVPIFMDIVEPQYKEAVMQNLLADIKEKGDRLTTGDVGNRYLFQTLARNGENETMYRMHNHYDAPGYGFQIKFGLTTLTEQWDPRKGNSWNHFMLGQIEEWFYQSLAGIMSDPEKPGFKHFFIQPEVVGDMTFAKADYQSVYGKIASSWEKKDGKFILTVQIPVNTTATIKLPVAKNSEIKMDGKRVRAGFDEKAQKPVLELGSGIYTIECTI
Question: Which “ratio PP/QS-21” value [1] does the source give for B1 here?
Answer: Its value is 0.16.

Question: What about the “Peak57 (PAR %)” value [2] of the same molecule?
Answer: Its value is 2.843%.

Question: And the “QS-17 (PAR %)” value [3]?
Answer: The value was 4.922%.

Question: What about the “Peak75 (PAR %)” value [4] of the same molecule?
Answer: Its value is 2.538%.

B2: 1029 (protein, listed as Rhodococcus jostii)
chain: MTTPTHLRLEHLRPGEPCGTTHPRLSWRLPTGSTGQQAYQVRVAGAFDRTSSTLFTTEIIEGRDHVLVRPWTATHPAPTAGEARTWQVRCWTDLGPSDWSEPATWVTGLLHGGDLTADWIEPYEPDVPPLGHRPVYRLRASWRPRAEIAHASLFATAHGIYEFFVNDVRVGDHELTPGFTSYRAHLQVQHFDVTDLLHPEHNDLGILLSDGWFRGRHGFERHGDSFGDRVAALAELHVRYADGTSERFGTGDGWTSTPSEIDAADLMDGQRVDLRRVPAGEVRHPAVVARGGLYDDRSRLTTGVAPPVRRIETLAAVAVTEPRPGTYVVDFGQNVNGWVTAADLGPAGTHATLTHGESLAADGSVDTDHLRAFEFATGTGLPAGQVDHVVSSGRAGEAFESRHTTHGFRYVQFDGLATKPGPGSVTAAVVHTDLEQVGSFGCDNDRLAKLHAAAVWSFRGNACDVPTDCPQRERSGFTGDWQVYVETAAFTHDVAGFSDKWLRDLAADQWPDGTVPNIVPNPAGNQPSGNHFADIANGSAGWGDAAVIVPWQLWRLYGDVEVLERQYDSMTRWVERAAGAARDRRHPDRARARPTPDAHEEYLWDTGFHWGEWLEPDEIPAPDPARDHSVVATAYLARSAELLAQIAGVLGRDRDECRYAAIAAGAVRAWQREFITPEGTLTHPTQANYVRALEFDLVPAEGRRRFADELAQLLVDNDYHLGTGFLATGMLLPALARNGHLDTAYRVLLSTGNPSWMEMIDRGATTIWERWDGVDENGRATASLNHYAKGAVISFLHQFVAGLRPAETTGPHTVGYRRFVVDPRPGGDINTAHAEHCSPYGNIAVRWTIADDVFTLSLTVPSGSECELRLGDTTELLRSGTYTRTCPAARVTQRSSRASPTR
Question: Which “ratio PP/QS-21” value [1] does the source give for B2 here?
Answer: Its value is 0.16.

Question: What about the “Peak57 (PAR %)” value [2] of the same molecule?
Answer: Its value is 3.334%.

Question: And the “QS-17 (PAR %)” value [3]?
Answer: The value was 4.926%.

Question: And the “Peak75 (PAR %)” value [4]?
Answer: The value was 2.069%.

B3: 1000 (protein, listed as Aspergillus terreus)
chain: MALSISQVAFEHHRTALGIGETQPRVSWRFDGNVSDWEQRAYEIEVKRAGHDADVFRSESSDSVLVPWPSSPLQSGEEATVRVRSFGSDGQHDTPWSDAVTVEPGLLTPDDWHDAVVIASDRPTEVDATHRPIQFRKEFSVDDSYVSARLYITALGLYEARINDQRVGDHVMAPGWQSYQYRHEYNTYDVTDLLKQGPNAIGVTVGEGWYSGRIGYDGGKRNIYGDTLGLLSLLVVTKSDGSKLYIPSDSSWKSSTGPIISSEIYDGEEYDSRLEQKGWSQVGFNSTGWLGTHELSFPKERLASPDGPPVRRVAEHKLANVFSSASGKTVLDFGQNLVGWLRIRVKGPKGQTIRFVHTEVMENGEVATRPLRQAKATDHFTLSGEGVQEWEPSFTYHGFRYVQVDGWPADTPLDENSVTAIVVHSDMERTGYFECSNPLISKLHENILWSMRGNFFSIPTDCPQRDERLGWTGDIHAFSRTANFIYDTAGFLRAWLKDARSEQLNHSYSLPYVIPNIHGNGETPTSIWGDAIVGVPWQLYESFGDKVMLEEQYGGAKDWVDKGIVRNDVGLWDRSTFQWADWLDPKAPADDPGDATTNKYLVSDAYLLHSTDMLANISTSLSKGEEASNYTEWHAKLTKEFQKAWITSNGTMANETQTGLALPLYFDLFPSAEQAQSAAKRLVNIIKQNDYKVGTGFAGTHLLGHTLSKYGESDAFYSMLRQTEVPSWLYQVVMNGTTTWERWDSMLPNGSINPGQMTSFNHYAVGSVGSWLHEVIGGLSPAEPGWRRINIEVVPGGDLQQASTKFLTPYGMASTKWWLDGQDQSCGGFDFHLVAEVPPNTRATVVLPGKGGEKVDVGSGVHEYHVRCVKL
Question: Which “ratio PP/QS-21” value [1] does the source give for B3 here?
Answer: The value was 0.16.

Question: And the “Peak57 (PAR %)” value [2]?
Answer: Its value is 3.119%.

Question: And the “QS-17 (PAR %)” value [3]?
Answer: The value was 5.010%.

Question: And the “Peak75 (PAR %)” value [4]?
Answer: Its value is 2.788%.

B4: 1065 (protein, listed as Chitinophaga pinensis)
chain: MRIILTAAFLLITSIVSAQYNAWKGSWITNTEDTTATKAPYLRKTFTLDKKVVSATAYVAGVGYHIVFVNGKPVTDAVLEQAYTRYDKRLLYKVYDVTALLSRKGTQSIAAELGNGWYNIQSHAVWGFQNAPWRKTPRLLLDLVIRYDDGTTETIATDNSWKCATGPSQFNCLYSGEIYDARQEVAGWNQTAFNDAGWKQVLLTSSPGGALHEQIMPSIKVIRRIKPVSMKNLGNGKYLFDMGQNFAGVATLNVKGQAGTKVTMYYGEVLKNGELDMVHNTEHMRSMPGELRFQTDVYFLKGGAREVFTPRFVYHGFQYVQIETDQPLELNVHSLEGLFYSTAFEEAGHFTSSDPMINKLYEAARQSYRSNFLSIPTDCPQREKNGWTADAHISTEIGLWNYQTTEGYRKWLHDVRDAQLPSGAMPGIAPSNGWGYDRPGNEEFTFGPAWGSALGFVTWYMYLYHNDTALVREHYDAFKKYTDAVAKGAEGYLFKHGLDDWMSLVKTPMPLTSTAYFYTDAELVAKMARVLGNKADEQTYSRLADSIRAAFNRTYFDANTGVYKDSTMTALSAAVFHGLASPEAAAKTAAQLSSKVQRSNYHADFGVMGTKYVLPTLSDYGYADVAFRMLTDTGYAGWAHWIANGATTLFEDWPGELSHNHIFFGDYCAWYYKTLAGIRPDEAAPGFQHFYIQPAFVKALNFVKADYASSAGMIKVEWKRKGNSIKLSVEIPSRATVRLPAGMTDDKNATRITLNGQQFDQVVLTPGKYTFNLK
Question: Which results are given for B4?
Answer: ratio PP/QS-21 [1]: 0.17; Peak57 (PAR %) [2]: 3.194%; QS-17 (PAR %) [3]: 5.015%; Peak75 (PAR %) [4]: 2.458%

B5: 1037 (protein, listed as Pedobacter heparinus)
chain: MNLKRHILLTAILMLNLSIAFSQVTLQNLRCEMLQNPLGIDVARPRLSWQIASTRNDVQQTAYHILVASSLAKLTENDADIWNSGKVNSAESLYNLYAGQTLKSKNKYYWKVKVYTSKGESSWSQPAFWLMGLLHYKDWEGRWIGFDRFFTGDNEAGARLSARYFRKEFSTTKTVASATAYLMGMGLYELYIDGQKIGDQVLAPTATDYTKNIKYNTLDVTEQLRQGGNHAIGVILGNGRFFAMRQSKAYKVKTFGLPKLLLQVNIKYTDGSTATIKTDDTWKGTADGPILANNEYDGEIYDARKEFKGWSEPGFKEDKWLRAEYVQEPGGTYEAQLNEGMKVMKTLSPVSITRRPNGNYILDFGQNFSGWVKFNVKGPRGTSVSLRFAESLEPNGELFRTNLRDARATDIYTLKGEGTETWAPRFTYQGFRYVELNGYPGVPQKSDFSGCLVYDDMKTAGTFESSNSLLNQIFKNAWWGIASNYKGMPVDCPQRNERQPWLGDRTVGAYGESFLFDNTALYKKWLDDIRYAQKEDGAIPDVAPAFWRYYSDNVTWPATLLFVADMLYRQTGDSTVIRKNYPAVKKWMSYMKDRYMSSEGIMTKDSYGDWCAPPATAEDGKGVNADQKHPSALIATAYYYHLANMMAGYSALTGNAGDREGYTRLAAEVKNAFNRKFYNSQGYYGDNKLTDNLLPVYFGLVEEADKGRVVMQICSIIEEKNNGHLSTGLIGTQFLMRTLTEAGRPDLAYRIASQKTYPSWGYMIENGATAIWELWNGNTAAPKMNSQNHVMMLGDLMIWYYENLAGIKAAAPGFKEITMKPELIEGLNNVTAGYQSVYGLIKSSWTKTGKKFSWNISIPPNTRAKAYLPASMQSQVKKGATADGAKYIMAENGRVVFELKSGEYAFVVEQ
Question: Which “ratio PP/QS-21” value [1] does the source give for B5 here?
Answer: The value was 0.17.

Question: What about the “Peak57 (PAR %)” value [2] of the same molecule?
Answer: Its value is 2.764%.

Question: What about the “QS-17 (PAR %)” value [3] of the same molecule?
Answer: The value was 4.972%.

Question: What about the “Peak75 (PAR %)” value [4] of the same molecule?
Answer: Its value is 2.424%.

B6: 1048 (protein, listed as Klebsiella oxytoca)
chain: MSQAIQHNSQVMMTRHPNFLRTAEALRPALSRQAHPPIAVVEAHADAAALFGWRAEPVSTLAAFYQRELSSGDSVIIDFGSHYVGYLHFLCQSAGSPPDAPAHLQLTFGETLSEVCEPFSDYQGWLSSSWLQQQDLWLDVLPAEIDLPRRYCFRYLKVEVKAVSRKFRLQFTQIEVNAVTSASGACPAATTSDPQLRAIDNVAVLTLQNCMQEVFEDGPKRDRRLWLGDLRLQALVNDVTFARHDLVRRCLYLFAGHTREDGMVSANVFVQPDVIADDTFLFDYSLFFVDVLYNYLQSAEDMATARELWPTARRQVELALTRCDASGVVRDSDDWWVFIDWQASLNKQAAAQGVLIYCLQRAIWLAERFEPELAVSYRQRLQQLKSAALDALWDPQQGFYVSGARRQVSWASQIWLVLAEVGTPQQRREIMRNLEKNPPAVAMNTPYLRHHYIAALLQCGLRDEAIAQIKAYWGAMVDYGADTFWEIFDPAHPDFSPYGSKLINSYCHAWSCTPAWFIRQYGL
Question: With B6 as the molecule, how does the “ratio PP/QS-21” value [1] read?
Answer: The value was 0.17.

Question: What about the “Peak57 (PAR %)” value [2] of the same molecule?
Answer: The value was 2.465%.

Question: What about the “QS-17 (PAR %)” value [3] of the same molecule?
Answer: The value was 5.007%.

Question: And the “Peak75 (PAR %)” value [4]?
Answer: The value was 2.441%.
